Consider two substances from patent US5750335.

The target in this data set is T1, MutS (Salmonella typhimurium) (UniProt P0A1Y0).
T1 sequence: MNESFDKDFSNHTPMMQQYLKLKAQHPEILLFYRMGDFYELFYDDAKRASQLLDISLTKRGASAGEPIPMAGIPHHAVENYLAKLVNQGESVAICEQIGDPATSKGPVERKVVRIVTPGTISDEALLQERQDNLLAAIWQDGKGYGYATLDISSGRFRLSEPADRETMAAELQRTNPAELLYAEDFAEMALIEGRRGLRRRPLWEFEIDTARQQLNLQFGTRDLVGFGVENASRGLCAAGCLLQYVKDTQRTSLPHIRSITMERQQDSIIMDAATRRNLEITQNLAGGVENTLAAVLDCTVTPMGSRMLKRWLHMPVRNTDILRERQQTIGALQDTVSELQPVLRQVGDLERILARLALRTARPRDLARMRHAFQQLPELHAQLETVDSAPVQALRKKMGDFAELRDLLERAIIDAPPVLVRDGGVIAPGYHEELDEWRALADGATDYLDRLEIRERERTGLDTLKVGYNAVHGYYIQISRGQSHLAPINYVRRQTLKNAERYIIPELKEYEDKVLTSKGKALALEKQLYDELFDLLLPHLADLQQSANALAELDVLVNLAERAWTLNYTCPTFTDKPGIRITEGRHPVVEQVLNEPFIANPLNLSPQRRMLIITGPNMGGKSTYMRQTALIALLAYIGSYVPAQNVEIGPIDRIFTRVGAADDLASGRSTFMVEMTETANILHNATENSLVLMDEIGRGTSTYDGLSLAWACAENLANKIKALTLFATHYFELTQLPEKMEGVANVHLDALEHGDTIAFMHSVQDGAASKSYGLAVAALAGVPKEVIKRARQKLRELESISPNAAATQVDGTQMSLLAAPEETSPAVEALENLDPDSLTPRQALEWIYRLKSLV
The experiment in a line: pulldown. The settings on record: on ice.

“1 KB AvaII-BglII M13mp8 C-A heteroduplex” showed a binding signal (fold over homoduplex) (immunoprecipitation with anti-MutS, 1 ug lambda competitor DNA) of 9.6.
For the substance 1 KB AvaII-BglII M13mp8 homoduplex, the binding signal (fold (reference)) (homoduplex control precipitated 9.6 fold less, competitor DNA) was determined as 1.
